Laboratory results taken from patent US20070128190A1 (GLENMARK PHARMACEUTICALS S A, published 2007).

Biological target: T1, GST-human α2 I domain fusion protein (human, UniProt P17301 153-368)
T1 construct: the reverse primer ends at ...SIEGTV; also called GST-α2 I domain; hα2I; not shown: glutathione S-transferase tag encoded by vector pGEX-2TK
T1 sequence: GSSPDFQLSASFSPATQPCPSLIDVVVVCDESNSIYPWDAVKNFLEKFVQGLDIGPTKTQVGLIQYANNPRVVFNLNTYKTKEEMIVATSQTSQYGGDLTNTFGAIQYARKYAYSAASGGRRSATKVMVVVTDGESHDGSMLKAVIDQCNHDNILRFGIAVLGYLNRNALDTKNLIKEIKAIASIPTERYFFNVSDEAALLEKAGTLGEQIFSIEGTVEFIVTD
Test: SPR (Biacore 2000), antibody captured, GST-α2 I domain in solution; second Human row; second Human row of humanized TMC-2206
Description: SPR, a method for characterizing macromolecular interactions, is an optical technique that uses the […] phenomenon to exquisitely measure minute changes in refractive index very close to a sensor surface. The binding between an antigen in solution (e.g., fusion protein) and its MAb receptor (immobilized on the surface of a sensor chip) results in a change in refractive index. The interaction is monitored in real time and the amount of bound antigen and the association and dissociation rate constants can be measured with high precision. The equilibrium dissociation constant can be easily calculated from: KD=kd/kₐ=koff/kₒₙ. The cloning of the human α2 I domain and the purification of the expressed GST-human α2 I domain fusion protein was described in Example 12. Analyses were performed at 20° C. using a Biacore 2000 optical sensor with a research-grade CM5 sensor chip (Biacore Life Sciences, Uppsala, Sweden) and equilibrated with running buffer (50 mM HEPES, 150 mM NaCl, 0.25 mM MgCl₂, 0.25 mM CaCl₂, 0.5% Tween-20, 0.1 mg/ml BSA, pH 7.4). […] Each cycle of antigen (GST-human-α2 I domain fusion protein) binding to surface-tethered anti-mouse IgGs involved three steps. […] [The other two surfaces (one anti-mouse and one Protein A) served as analytic references.] In the second step, GST-human-α2 I domain fusion protein was injected across the four surfaces. Responses obtained from the reference surfaces (due to refractive index mismatches between the antigen and running buffer) were subtracted from the responses obtained from the reaction surfaces. In the third step, the antigen/antibody complexes were stripped from the surfaces such that the surfaces could be used for another binding cycle.

Kd: 4 nM | koff: 0.0024 s⁻¹ | kon: 580000 M⁻¹ s⁻¹
B1: Humanized TMC-2206 (hIgG4/κ VH12.0/VL10.0Q) (antibody)
heavy: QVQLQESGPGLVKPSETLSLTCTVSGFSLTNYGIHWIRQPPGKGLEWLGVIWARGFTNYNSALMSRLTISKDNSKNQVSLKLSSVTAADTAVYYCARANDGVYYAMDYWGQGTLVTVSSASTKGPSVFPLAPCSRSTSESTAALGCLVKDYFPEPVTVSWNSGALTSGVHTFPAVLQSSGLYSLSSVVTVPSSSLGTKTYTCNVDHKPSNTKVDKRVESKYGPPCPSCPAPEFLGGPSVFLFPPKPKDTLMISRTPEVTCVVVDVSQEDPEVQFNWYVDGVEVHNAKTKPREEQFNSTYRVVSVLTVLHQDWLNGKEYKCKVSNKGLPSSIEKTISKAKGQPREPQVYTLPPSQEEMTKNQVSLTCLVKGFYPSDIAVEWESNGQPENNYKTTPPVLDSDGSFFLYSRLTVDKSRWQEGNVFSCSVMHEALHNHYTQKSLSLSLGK
light: DFVMTQSPAFLSVTPGEKVTITCSAQSSVNYIHWYQQKPDQAPKKLIYDTSKLASGVPSRFSGSGSGTDYTFTISSLEAEDAATYYCQQWTTNPLTFGQGTKVEIKRTVAAPSVFIFPPSDEQLKSGTASVVCLLNNFYPREAKVQWKVDNALQSGNSQESVTEQDSKDSTYSLSSTLTLSKADYEKHKVYACEVTHQGLSSPVTKSFNRGEC
notes: labelled with Eu or Alexa-488 in some assays
